B1: GpH7-A5/GpH7-B3 variant S298_01G/GpL16-k0 (antibody, human IgG1, kappa)
heavy 1: not shown
heavy 2: not shown
light: DIVMTQSPLSLPVTPGEPASISCQASESLVHSNRNTYLHWYLQKPGQSPQLLIYKVSNRFSGVPDRFSGSGSGTDFTLKISRVEAEDVGVYYCSQNTHVPPTFGQGTKVEIERTVAAPSVFIFPPSDEQLKSGTASVVCLLNNFYPREAKVQWKVDNALQSGNSQESVTEQDSKDSTYSLSSTLTLSKADYEKHKVYACEVTHQGLSSPVTKSFNRGEC
notes: He Ab; IgG1, mutation in one H chain
B2: GpH7-A5/GpH7-B3 variant S298_20W/GpL16-k0 (antibody, human IgG1, kappa)
heavy 1: not shown
heavy 2: not shown
light: B1 light
notes: as for B1
B3: GpH7-A5/GpH7-B3 variant Y296_08L/GpL16-k0 (antibody, human IgG1, kappa)
heavy 1: not shown
heavy 2: not shown
light: B1 light
notes: as for B1
B4: GpH7-A5/GpH7-B3 variant Y300_09D/GpL16-k0 (antibody, human IgG1, kappa)
heavy 1: not shown
heavy 2: not shown
light: B1 light
notes: as for B1
B5: GpH7-A5/GpH7-B3 variant Y296_18N/GpL16-k0 (antibody, human IgG1, kappa)
heavy 1: not shown
heavy 2: not shown
light: B1 light
notes: as for B1
B6: GpH7-A5/GpH7-B3 variant Y300_01G/GpL16-k0 (antibody, human IgG1, kappa)
heavy 1: not shown
heavy 2: not shown
light: B1 light
notes: as for B1
B7: GpH7-A5/GpH7-B3 variant S324_03V/GpL16-k0 (antibody, human IgG1, kappa)
heavy 1: not shown
heavy 2: not shown
light: B1 light
notes: as for B1
B8: GpH7-A5/GpH7-B3 variant Y296_10E/GpL16-k0 (antibody, human IgG1, kappa)
heavy 1: not shown
heavy 2: not shown
light: B1 light
notes: as for B1
B9: GpH7-A5/GpH7-B3 variant Y296_13S/GpL16-k0 (antibody, human IgG1, kappa)
heavy 1: not shown
heavy 2: not shown
light: B1 light
notes: as for B1
B10: GpH7-A5/GpH7-B3 variant Y296_12R/GpL16-k0 (antibody, human IgG1, kappa)
heavy 1: not shown
heavy 2: not shown
light: B1 light
notes: as for B1
B11: GpH7-A5/GpH7-B3 variant Y300_11K/GpL16-k0 (antibody, human IgG1, kappa)
heavy 1: not shown
heavy 2: not shown
light: B1 light
notes: as for B1
B12: GpH7-A5/GpH7-B3 variant S324_07I/GpL16-k0 (antibody, human IgG1, kappa)
heavy 1: not shown
heavy 2: not shown
light: B1 light
notes: as for B1
B13: GpH7-A5/GpH7-B3 variant S298_07I/GpL16-k0 (antibody, human IgG1, kappa)
heavy 1: not shown
heavy 2: not shown
light: B1 light
notes: as for B1
B14: GpH7-A5/GpH7-B3 variant Y296_02A/GpL16-k0 (antibody, human IgG1, kappa)
heavy 1: not shown
heavy 2: not shown
light: B1 light
notes: as for B1
B15: GpH7-A5/GpH7-B3 variant Y296_04F/GpL16-k0 (antibody, human IgG1, kappa)
heavy 1: not shown
heavy 2: not shown
light: B1 light
notes: as for B1
B16: GpH7-A5/GpH7-B3 variant Y296_19Q/GpL16-k0 (antibody, human IgG1, kappa)
heavy 1: not shown
heavy 2: not shown
light: B1 light
notes: as for B1
B17: GpH7-A5/GpH7-B3 variant S324_02A/GpL16-k0 (antibody, human IgG1, kappa)
heavy 1: not shown
heavy 2: not shown
light: B1 light
notes: as for B1
B18: GpH7-A5/GpH7-B3 variant Y296_09D/GpL16-k0 (antibody, human IgG1, kappa)
heavy 1: not shown
heavy 2: not shown
light: B1 light
notes: as for B1
B19: GpH7-A5/GpH7-B3 variant S298_12R/GpL16-k0 (antibody, human IgG1, kappa)
heavy 1: not shown
heavy 2: not shown
light: B1 light
notes: as for B1
B20: GpH7-A5/GpH7-B3 variant S298_19Q/GpL16-k0 (antibody, human IgG1, kappa)
heavy 1: not shown
heavy 2: not shown
light: B1 light
notes: as for B1
B21: GpH7-A5/GpH7-B3 variant Y296_01G/GpL16-k0 (antibody, human IgG1, kappa)
heavy 1: not shown
heavy 2: not shown
light: B1 light
notes: as for B1

The first experiment concerns the target T1, FcγRIIb extracellular domain with C-terminal His tag (human, UniProt P31994 43-217).
T1 construct: extracellular domain; expressed in FreeStyle293 cells; analyte in Biacore; also called FcgRIIb; 2b
T1 sequence (looked up): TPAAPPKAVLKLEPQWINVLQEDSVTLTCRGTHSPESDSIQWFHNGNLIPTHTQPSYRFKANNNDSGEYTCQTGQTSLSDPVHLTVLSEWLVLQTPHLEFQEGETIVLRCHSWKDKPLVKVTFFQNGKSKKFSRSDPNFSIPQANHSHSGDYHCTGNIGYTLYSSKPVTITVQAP
The experiment is described as follows: SPR (Biacore), captured antibody, FcγR as analyte; relative binding. (Surface plasmon resonance follows binding to a sensor surface in real time, without labels.)
Take B1: the He/Con_2b is 80.1 % of HeCon Ab (GpH7-A5/GpH7-B3/GpL16-k0 = 100).

With B2, the He/Con_2b is 41.1 % of HeCon Ab (GpH7-A5/GpH7-B3/GpL16-k0 = 100).

On to B3, for which the He/Con_2b was 82.3 % of HeCon Ab (GpH7-A5/GpH7-B3/GpL16-k0 = 100).

Regarding B4, the He/Con_2b is 93.2 % of HeCon Ab (GpH7-A5/GpH7-B3/GpL16-k0 = 100).

Consider B5, for which the He/Con_2b was 91.5 % of HeCon Ab (GpH7-A5/GpH7-B3/GpL16-k0 = 100).

With B6, the He/Con_2b was 48.4 % of HeCon Ab (GpH7-A5/GpH7-B3/GpL16-k0 = 100).

For the molecule B7, the He/Con_2b is 97.8 % of HeCon Ab (GpH7-A5/GpH7-B3/GpL16-k0 = 100).

B8: the He/Con_2b was 98 % of HeCon Ab (GpH7-A5/GpH7-B3/GpL16-k0 = 100).

Take B9: the He/Con_2b is 86.3 % of HeCon Ab (GpH7-A5/GpH7-B3/GpL16-k0 = 100).

As to B10, the He/Con_2b was 79.5 % of HeCon Ab (GpH7-A5/GpH7-B3/GpL16-k0 = 100).

B11: the He/Con_2b is 51.6 % of HeCon Ab (GpH7-A5/GpH7-B3/GpL16-k0 = 100).

Turning to B12, the He/Con_2b is 95.7 % of HeCon Ab (GpH7-A5/GpH7-B3/GpL16-k0 = 100).

On to B13, for which the He/Con_2b is 70.6 % of HeCon Ab (GpH7-A5/GpH7-B3/GpL16-k0 = 100).

In the case of B14, the He/Con_2b is 82 % of HeCon Ab (GpH7-A5/GpH7-B3/GpL16-k0 = 100).

In the case of B15, the He/Con_2b was 99.2 % of HeCon Ab (GpH7-A5/GpH7-B3/GpL16-k0 = 100).

As to B16, the He/Con_2b was 89.3 % of HeCon Ab (GpH7-A5/GpH7-B3/GpL16-k0 = 100).

On to B17, for which the He/Con_2b was 78.3 % of HeCon Ab (GpH7-A5/GpH7-B3/GpL16-k0 = 100).

Take B18: the He/Con_2b is 98.9 % of HeCon Ab (GpH7-A5/GpH7-B3/GpL16-k0 = 100).

Regarding B19, the He/Con_2b is 57.8 % of HeCon Ab (GpH7-A5/GpH7-B3/GpL16-k0 = 100).

For B20, the He/Con_2b is 73.3 % of HeCon Ab (GpH7-A5/GpH7-B3/GpL16-k0 = 100).

With B21, the He/Con_2b was 79.3 % of HeCon Ab (GpH7-A5/GpH7-B3/GpL16-k0 = 100).

The next experiment deals with T2, FcγRIa extracellular domain with C-terminal His tag (human, UniProt P12314 16-292).
T2 construct: extracellular domain; expressed in FreeStyle293 cells; analyte in Biacore; also called FcgRI; 1a
T2 sequence (P12314 16-292): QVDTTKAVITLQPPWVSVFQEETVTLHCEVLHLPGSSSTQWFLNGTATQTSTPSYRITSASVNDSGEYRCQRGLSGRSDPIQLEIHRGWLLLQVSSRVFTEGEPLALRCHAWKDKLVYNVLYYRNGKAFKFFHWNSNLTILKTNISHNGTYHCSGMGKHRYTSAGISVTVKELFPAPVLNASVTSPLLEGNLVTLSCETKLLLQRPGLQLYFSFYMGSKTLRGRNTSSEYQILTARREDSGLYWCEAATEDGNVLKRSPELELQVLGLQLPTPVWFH
The description is as above.
B1: the He/Con_1a is 104 % of HeCon Ab (GpH7-A5/GpH7-B3/GpL16-k0 = 100).

As to B2, the He/Con_1a was 104 % of HeCon Ab (GpH7-A5/GpH7-B3/GpL16-k0 = 100).

For B3, the He/Con_1a was 104 % of HeCon Ab (GpH7-A5/GpH7-B3/GpL16-k0 = 100).

Turning to B4, the He/Con_1a was 112 % of HeCon Ab (GpH7-A5/GpH7-B3/GpL16-k0 = 100).

For B5, the He/Con_1a is 106 % of HeCon Ab (GpH7-A5/GpH7-B3/GpL16-k0 = 100).

Regarding B6, the He/Con_1a was 116 % of HeCon Ab (GpH7-A5/GpH7-B3/GpL16-k0 = 100).

Take B7: the He/Con_1a was 104 % of HeCon Ab (GpH7-A5/GpH7-B3/GpL16-k0 = 100).

Consider B8, for which the He/Con_1a was 106 % of HeCon Ab (GpH7-A5/GpH7-B3/GpL16-k0 = 100).

As for B9, the He/Con_1a is 105 % of HeCon Ab (GpH7-A5/GpH7-B3/GpL16-k0 = 100).

As for B10, the He/Con_1a was 106 % of HeCon Ab (GpH7-A5/GpH7-B3/GpL16-k0 = 100).

B11: the He/Con_1a was 107 % of HeCon Ab (GpH7-A5/GpH7-B3/GpL16-k0 = 100).

For the molecule B12, the He/Con_1a was 102 % of HeCon Ab (GpH7-A5/GpH7-B3/GpL16-k0 = 100).

As to B13, the He/Con_1a is 107 % of HeCon Ab (GpH7-A5/GpH7-B3/GpL16-k0 = 100).

For the molecule B14, the He/Con_1a is 103 % of HeCon Ab (GpH7-A5/GpH7-B3/GpL16-k0 = 100).

With B15, the He/Con_1a is 104 % of HeCon Ab (GpH7-A5/GpH7-B3/GpL16-k0 = 100).

Consider B16, for which the He/Con_1a was 112 % of HeCon Ab (GpH7-A5/GpH7-B3/GpL16-k0 = 100).

As for B17, the He/Con_1a is 103 % of HeCon Ab (GpH7-A5/GpH7-B3/GpL16-k0 = 100).

For the molecule B18, the He/Con_1a was 106 % of HeCon Ab (GpH7-A5/GpH7-B3/GpL16-k0 = 100).

For B19, the He/Con_1a was 109 % of HeCon Ab (GpH7-A5/GpH7-B3/GpL16-k0 = 100).

For B20, the He/Con_1a is 109 % of HeCon Ab (GpH7-A5/GpH7-B3/GpL16-k0 = 100).

B21: the He/Con_1a is 103 % of HeCon Ab (GpH7-A5/GpH7-B3/GpL16-k0 = 100).
